{"source": "paper PMC6662836", "key": {"[1]": {"test_system": "S129-phospho-alpha-synuclein (human)", "experiment": "EMSA", "conditions": "57 uM stated for GST in the comparison; 10% gel; N=3; EMSA: 20 ng DNA in 20 uL, 94 mM Tris-Cl pH 8.0, 25 mM NaCl, 1 mM EDTA, 5% ficoll; on ice 20 min then RT 30 min; 10% or 6% polyacrylamide TBE gel, 100 V …"}, "alpha-synuclein (human)": {"test_system": "alpha-synuclein (human)", "experiment": "EMSA", "conditions": "57 uM protein; 10% gel; N=3; EMSA: 20 ng DNA in 20 uL, 94 mM Tris-Cl pH 8.0, 25 mM NaCl, 1 mM EDTA, 5% ficoll; on ice 20 min then RT 30 min; 10% or 6% polyacrylamide TBE gel, 100 V …"}}}
{"substance": "300 bp dsDNA", "values": [{"measurement": "binding signal (fraction shifted)", "setting": "[1]", "value": 0.58}, {"measurement": "binding signal (fraction shifted)", "setting": "alpha-synuclein (human)", "value": 0.86}]}
